Reference: article PMC2962642, “Familial Glucocorticoid Receptor Haploinsufficiency by Non-Sense Mediated mRNA Decay, Adrenal Hyperplasia and Apparent Mineralocorticoid Excess”

Target: WT hGRalpha (glucocorticoid receptor) (Homo sapiens, UniProt P04150 1-777)
Test: EMSA; complex abolished by 50 ng unlabeled probe; 15 min at 25 C; 4.5% acrylamide/bisacrylamide (37:1) gel, 0.25x TBE (50 mM Tris, 50 mM boric acid, 1 mM EDTA); binding buffer and pH not stated (as in ref. 26)
Settings: protein: ivt; chain copies: 2; label: 32P-dCTP (Klenow fill-in); 5' overhangs AGCT, filled in by Klenow for the labeled probe

Chain of WT hGRalpha (glucocorticoid receptor) (P04150 whole entry): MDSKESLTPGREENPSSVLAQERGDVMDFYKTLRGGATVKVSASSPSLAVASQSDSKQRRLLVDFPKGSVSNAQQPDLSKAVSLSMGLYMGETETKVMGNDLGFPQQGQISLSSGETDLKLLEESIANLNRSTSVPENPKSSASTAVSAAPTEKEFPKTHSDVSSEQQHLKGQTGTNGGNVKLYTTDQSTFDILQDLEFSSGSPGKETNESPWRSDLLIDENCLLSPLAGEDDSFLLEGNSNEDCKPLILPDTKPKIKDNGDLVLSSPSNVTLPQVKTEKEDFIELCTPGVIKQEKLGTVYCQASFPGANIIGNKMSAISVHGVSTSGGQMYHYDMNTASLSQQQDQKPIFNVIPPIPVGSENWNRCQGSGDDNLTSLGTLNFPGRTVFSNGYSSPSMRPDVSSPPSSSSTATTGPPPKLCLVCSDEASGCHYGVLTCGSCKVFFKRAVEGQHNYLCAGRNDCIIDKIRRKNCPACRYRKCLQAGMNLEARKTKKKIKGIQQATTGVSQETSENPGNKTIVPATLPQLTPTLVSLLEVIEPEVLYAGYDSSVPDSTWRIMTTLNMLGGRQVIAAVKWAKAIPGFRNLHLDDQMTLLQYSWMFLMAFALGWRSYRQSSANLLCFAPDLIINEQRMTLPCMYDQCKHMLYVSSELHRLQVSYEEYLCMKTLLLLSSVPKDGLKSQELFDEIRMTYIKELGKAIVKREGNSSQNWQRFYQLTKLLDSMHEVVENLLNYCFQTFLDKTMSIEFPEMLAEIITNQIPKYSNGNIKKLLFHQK

B1: GRE consensus probe (dsDNA)
DNA 1: AGCTGCTCAGCTAGAACACTCTGTTCTCTACT
DNA 2: AGCTAGTAGAGAACAGAGTGTTCTAGCTAGC
binding result: binds
